Values of other authors, collected in publication PMC6295873 (Chemical Science, 2018).

Columns and labels:
[1] = MUC1-based anticancer-vaccines; ref 39 (preceding sentence)

Substance	immunogenicity [1]	half-life in blood
natural MUC1 glycoprotein: densely O-glycosylated human mucin glycoprotein	very low immunogenicity	–
KP10: endogenous neuropeptide acting through its cognate G-protein-coupled receptor, KiSS1R	–	< 1 min
